In patent publication US20240141042A1 (INNATE PHARMA, published 2024):
Numbering of substitutions follows the chain as printed.

Legend:
[1] = target: T1, Human NKp46 recombinant proteins (human, UniProt O76036 22-258); experiment: SPR, bispecific captured on Protein-A chip
T1 construct: also called recombinant human NKp46 proteins
Experimental: SPR measurements were performed on a Biacore T100 apparatus (Biacore GE Healthcare) at 25° C. In all Biacore experiments HBS-EP+(Biacore GE Healthcare) and NaOH 10 mM served as running buffer and regeneration buffer respectively. Sensorgrams were analyzed with Biacore T100 Evaluation software. Protein-A was purchase from (GE Healthcare). Human NKp46 recombinant proteins were cloned, produced and purified at Innate Pharma.
Protein-A proteins were immobilized covalently to carboxyl groups in the dextran layer on a Sensor Chip CM5. The chip surface was activated with EDC/NHS (N-ethyl-N′-(3-dimethylaminopropyl) carbodiimidehydrochloride and N-hydroxysuccinimide (Biacore GE Healthcare)). Protein-A was diluted to 10 μg/ml in coupling buffer (10 mM acetate, pH 5.6) and injected until the appropriate immobilization level was reached (i.e. 2000 RU). Deactivation of the remaining activated groups was performed using 100 mM ethanolamine pH 8 (Biacore GE Healthcare).

[2] = target: T2, NKp46 mutant 19 (human, UniProt O76036 22-304); experiment: flow cytometry on HEK293T cells transfected with NKp46 mutant 19 (I135A, S136A), antibody titrated 0.001-1 ug/ml
T2 construct: Expressed in transfected HEK293T cells
T2 chain: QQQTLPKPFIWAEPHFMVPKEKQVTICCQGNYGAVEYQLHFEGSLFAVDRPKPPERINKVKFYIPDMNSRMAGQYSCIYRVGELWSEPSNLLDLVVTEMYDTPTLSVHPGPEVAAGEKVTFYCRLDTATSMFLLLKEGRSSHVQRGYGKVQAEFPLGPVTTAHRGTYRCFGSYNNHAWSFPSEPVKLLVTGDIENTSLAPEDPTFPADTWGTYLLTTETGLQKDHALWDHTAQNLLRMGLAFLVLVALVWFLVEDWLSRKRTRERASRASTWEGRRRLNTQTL

[3] = target: T3, NKp46 mutant 2 (human, UniProt O76036 22-304); experiment: flow cytometry on HEK293T cells transfected with NKp46 mutant 2 (K41S, E42A, E119A), antibody titrated 0.001-1 ug/ml
T3 construct: Expressed in transfected HEK293T cells
T3 chain: T2 chain with K20S, E21A, E98A, A114I, A115S
Experimental: All the anti-NKp46 antibodies were tested for their binding to each mutant by flow cytometry. A first experiment was performed to determine antibodies that lose their binding to one or several mutants at one concentration (10 μg/ml).

[4] = target: T4, human NKp46 expressed at the cell surface (human, UniProt O76036 22-304); experiment: flow cytometry on HEK293T cells transfected with wild-type NKp46, antibody titrated 0.001-1 ug/ml
T4 construct: Wild-type NKp46 on cells (transfected cell lines or NK cells); also called cell line expressing the human NKp46 construct; NKp46 cell line

[5] = target: T5, NKp46 mutant Supp7 (human, UniProt O76036 22-304); experiment: flow cytometry on HEK293T cells transfected with NKp46 mutant Supp7 (Y121A, Y194A; printed 'Mutant S7'), antibody titrated 0.001-1 ug/ml
T5 construct: Expressed in transfected HEK293T cells; also called supplementary mutant Supp7
T5 chain: T2 chain with Y100A, A114I, A115S, Y173A

[6] = target: T6, NKp46 mutant Supp6 (human, UniProt O76036 22-304); experiment: flow cytometry on HEK293T cells transfected with NKp46 mutant Supp6 (E104A, L105A; printed 'Mutant S6'), antibody titrated 0.001-1 ug/ml
T6 construct: Expressed in transfected HEK293T cells; also called supplementary mutant Supp6
T6 chain: T2 chain with E83A, L84A, A114I, A115S

[7] = target: T7, NKp46 mutant 6 (human, UniProt O76036 22-304); experiment: flow cytometry on HEK293T cells transfected with NKp46 mutant 6 (R101A, V102A), antibody titrated 0.001-1 ug/ml
T7 construct: Expressed in transfected HEK293T cells
T7 chain: T2 chain with R80A, V81A, A114I, A115S

[8] = target: T8, NKp46 mutant Supp8 (human, UniProt O76036 22-304); experiment: flow cytometry on HEK293T cells transfected with NKp46 mutant Supp8 (P132A, E133A; printed 'Mutant S8'), antibody titrated 0.001-1 ug/ml
T8 construct: Expressed in transfected HEK293T cells; also called supplementary mutant Supp8
T8 chain: T2 chain with P111A, E112A, A114I, A115S

Measured: binding result

B1: CD19-F2-NKp46-3 (bispecific antibody)
chain 1: DIQLTQSPASLAVSLGQRATISCKASQSVDYDGDSYLNWYQQIPGQPPKLLIYDASNLVSGIPPRFSGSGSGTDFTLNIHPVEKVDAATYHCQQSTEDPWTFGGGTKLEIKGGGGSGGGGSGGGGSQVQLQQSGAELVRPGSSVKISCKASGYAFSSYWMNWVKQRPGQGLEWIGQIWPGDGDTNYNGKFKGKATLTADESSSTAYMQLSSLASEDSAVYFCARRETTTVGRYYYAMDYWGQGTTVTVSSGGGSSAPELLGGPSVFLFPPKPKDTLMISRTPEVTCVVVDVSHEDPEVKFNWYVDGVEVHNAKTKPREEQYNSTYRVVSVLTVLHQDWLNGKEYKCKVSNKALPAPIEKTISKAKGQPREPQVYTKPPSREEMTKNQVSLSCLVKGFYPSDIAVEWESNGQPENNYKTTVPVLDSDGSFRLASYLTVDKSRWQQGNVFSCSVMHEALHNHYTQKSLSLSPGSTGSEVQLQQSGPELVKPGASVKISCKTSGYTFTEYTMHWVKQSHGKSLEWIGGISPNIGGTSYNQKFKGKATLTVDKSSSTAYMELRSLTSEDSAVYYCARRGGSFDYWGQGTTLTVSSASTKGPSVFPLAPSSKSTSGGTAALGCLVKDYFPEPVTVSWNSGALTSGVHTFPAVLQSSGLYSLSSVVTVPSSSLGTQTYICNVNHKPSNTKVDKRVEPKSCDKTH
chain 2: DIVMTQSPATLSVTPGDRVSLSCRASQSISDYLHWYQQKSHESPRLLIKYASQSISGIPSRFSGSGSGSDFTLSINSVEPEDVGVYYCQNGHSFPLTFGAGTKLELKRTVAAPSVFIFPPSDEQLKSGTASVVCLLNNFYPREAKVQWKVDNALQSGNSQESVTEQDSKDSTYSLSSTLTLSKADYEKHKVYACEVTHQGLSSPVTKSFNRGEC
notes: Heterodimer with monomeric Fc; also called bi-specific antibody NKp46-3 (F2)
binds: [1]

B2: NKp46-6 (antibody, V domains shown)
VH: QVQLQQPGSVLVRPGASVKLSCKASGYTFTSSWMHWAKQRPGQGLEWIGHIHPNSGISNYNEKFKGKATLTVDTSSSTAYVDLSSLTSEDSAVYYCARGGRFDDWGAGTTVTVSS
VL: DIVMTQSPATLSVTPGDRVSLSCRASQSISDYLHWYQQKSHESPRLLIKYASQSISGIPSRFSGSGSGSDFTLSINSVEPEDVGVYYCQNGHSFLMYTFGGGTKLEIK
notes: not in the list MOLECULES as an antibody; also called antibody NKp46-6; monoclonal antibody NKp46-6
binds: [2] | [3] | [4] | [5] | [6] | [7] | [8]
